± gives the uncertainty stated by the source.

The nature of the data set: amyloid nucleation score (Sup35N fusion, yeast selection) (log enrichment); library NNK2; higher = more nucleation; inactive = no reads after selection. The procedure, abridged:
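Libraries of peptides of 20 random codons fused to Sup35N were expressed in psi-negative yeast and induced 24 hours with 100 μM copper sulfate. Selection was 7 days at 30°C on medium lacking adenine and uracil, and plasmid inserts were Illumina-sequenced before and after selection. Nucleation score is the DiMSum log enrichment of output over input reads, centred on the mode score of non-aggregating sequences, and sequences with under 100 input reads were left out.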

RCMLKSIRLLSSVGRLHYRW registered an amyloid nucleation score of 0.742 ± 0.48.
The figure for IIWVHSTIPSRVNR is -0.183 ± 1; for DTNVCHIYFGFELLSRFFCN it is 0.252 ± 0.36.
The entry for WMWDFFYTGLLMRTF is “inactive”; for VMVFVCVAYEYEFSPIRGPE it is “inactive”.
The figure for VSITISTTCSNKGS is 1.29 ± 0.22.
On to CFCLWGLDDLVLGLGSTMRF, for which the amyloid nucleation score came to 3.16 ± 0.057.
The value for NFWYCYTLSDNNYFF was 7.41 ± 0.038; that for RQVWLR was 0.854 ± 0.32; that for YKVCRVFLVIYIHDFEWVVD was “inactive”.
The value for IMGKI was 0.163 ± 0.79; that for LNLIHR was 0.153 ± 0.79.
The figure for CNGYRKVHCLMTMSRWTYGR is 1.08 ± 0.1; for GIYFIYLSM it is 5.918 ± 0.059; for EVHASYVRTSWDVCTWVGHV it is 2.29 ± 0.26.
IANVWLLQFRKAFEGGLDAG displayed an amyloid nucleation score of 7.08 ± 0.079.
The value for SQWDKTVT was -0.986 ± 0.55.
Substance DTGSPDGWAQWLPYSEFLGM returned an amyloid nucleation score of -0.283 ± 0.65.
The value for HACGIVHRPLLRD was -0.191 ± 0.33; that for RLRAQSHCAVAAGRNMEPWA was 5.986 ± 0.043.
The value for FFQVPSSNLVSLTDRLYSLG was -1.16 ± 0.5.
As to TFKILLRCGNNLFGSKAFDM, the amyloid nucleation score came out at 3.63 ± 0.05.
The figure for FSMDHDDRSSCKAWHRSEFE is 1 ± 0.2.
As for GLPFLVESMSCPCDLDTVGW, the amyloid nucleation score stood at 2.27 ± 0.23.
The value for FPAWTDGVVLVRVVGASTEE was -0.132 ± 0.34; that for LFVSSDRHRSDESSGDACCL was -0.494 ± 0.76; that for AQLVGVCFRRFCQLSTSLCY was -1.18 ± 0.64.
The figure for LTPIMAEKVLPYICQLLRGS is -0.228 ± 0.55; for AACYCCISRMVLYFSFHGSC it is “inactive”; for SISRVMEMTSLSIHRFIRLC it is -0.918 ± 1.1.
The value for IFSQGHEYKRDELKNV was “inactive”; that for FDLSREV was -0.544 ± 0.29; that for RQQMDS was 3.62 ± 0.073.
With LSVPRIFGSFVWVRQ, the amyloid nucleation score was -0.633 ± 1.1.
As to QFRTICKLWA, the amyloid nucleation score was -0.099 ± 0.42.
The value for YMDSKSNLARTFVRVCGLLG was 0.097 ± 1.1.
The figure for NSLLNFWEVTLLRGGTHMVF is -0.675 ± 0.29; for LLMRVFRGESR it is -1.02 ± 0.49.
The entry for WLSSGAVRVKGCGFYNSRYN is “inactive”.
In the case of VQYLVDCMYWVQGMAVSE, the amyloid nucleation score is 0.475 ± 0.46.
Turning to YFGTVHAILGFICLCLIIFQ, the amyloid nucleation score is 3.66 ± 0.085.
The entry for IVGLQVAFFLVFKSVHRDVA is “inactive”; for EWVAVGTDQR it is 1.25 ± 0.29.
The figure for NFEHVASLIFGLLILDSQSL is -1.43 ± 0.49.
The value for MERDCVRVDLFRVSRGGWML was 5.863 ± 0.052; that for IFLEMKDHIIRATFNRLRFC was “inactive”.
NRGTEWISGECRYHWQDVRQ: the amyloid nucleation score stood at 0.109 ± 0.21.
The entry for KALAYAWLCISLYKDFGYYN is “inactive”.
The value for YWQYCVDANFKQLMQRGKVF was 0.728 ± 0.62; that for HYYSIDEASRYKMDLNLSLL was 2.91 ± 0.099.
NEHCVNAGSRWMDGCVSCWY yielded an amyloid nucleation score of 3.58 ± 0.082.
For the substance VEGTIRKRFGVWKYVLAPWL, the amyloid nucleation score was -0.267 ± 0.38.
The value for LQKDYTSMH was “inactive”.
The value for CFQSRYLTRSGLKVWHTKGD was 0.631 ± 0.37.
The figure for SMGFSRHRFKG is 0.164 ± 0.8.
With ISSDRIYICL, the amyloid nucleation score was 5.996 ± 0.059.
The substance YRPMEGRLKWSMTVLIVSLY had an amyloid nucleation score of 0.497 ± 0.46.
The value for QKRPVDIVPDHVWLWTR was 0.114 ± 0.55; that for FCMRNGVYLEYFVGLMLFCA was -0.566 ± 0.63; that for VVYFFFCLDMVMTGF was 4.65 ± 0.087.
The figure for LSSWS is -0.611 ± 0.44; for RCFIDLPCCQYLVQPRVGSG it is -0.26 ± 1.
The value for GYRSHSDNNICNVSGSHTYI was 3.96 ± 0.065; that for QLQVSYYQRSGMFERFRLEW was 2.46 ± 0.18; that for QKEENSWPGLIRCNLGVREG was 0.092 ± 0.22.
Take MLTFSTNDFVRFVMHVAQWD: the amyloid nucleation score worked out at 2.1 ± 0.22.
The value for VIFAHGVFGECWFVYSLVFS was -0.784 ± 0.76; that for ICCWEMCLGSFFR was 0.287 ± 0.65.
The entry for DHMRHGCGYHLWFSGLSWRF is “inactive”.
The value for SFVVRTQMSGCANSFDEKFN was -0.479 ± 1.
Take RLLLRALYNPEYSRTQC: the amyloid nucleation score was -1.43 ± 0.64.
DVCLHMGKYSNVLILGHNWS registered an amyloid nucleation score of -0.449 ± 0.36.
The figure for FQLPFIVFRRMIVYLKWRWG is -1.05 ± 0.78; for YSVQRCGYQDSKNNDVFLA it is -0.043 ± 0.5; for AGWQCLCSLFLLKEITTCIS it is -0.367 ± 0.56.
The value for NGKNILD was “inactive”.
The figure for LTYAYNISYFNWVYCGYWFC is 6.448 ± 0.042.
Consider TYQMWLDTE, for which the amyloid nucleation score was -0.445 ± 0.39.
The figure for LTSWDHN is 0.131 ± 0.31; for KFFLFDHNNNF it is 0.699 ± 0.33.
The value for HWRGFYS was -0.388 ± 1.1; that for FPVYRI was “inactive”.
The figure for SFSESIPIIGGLRKAVSHTS is 0.413 ± 0.24.
RSTDLVSIFRMDLAIRINVL: the amyloid nucleation score came out at 0.815 ± 0.13.
The value for SPKMF was -0.564 ± 0.46; that for ILTTCMNAKKLNLFGYGL was -0.291 ± 0.63; that for VYCLSVMSARSQFCVWGWML was 0.165 ± 1.
The value for LYYFGTGAICMLLNWICPGC was “inactive”; that for TSWNWSFFWCTYYLFTQVRG was -0.772 ± 0.42.
As to LLSECWLESGPSGASTC, the amyloid nucleation score came out at 1.5 ± 0.5.
The figure for YSDSSSREMEQSGL is -0.199 ± 0.63; for WNVSGC it is -0.474 ± 0.55.
The figure for TYKMKNMGICIYRYARLGDC is 0.372 ± 0.74; for LLMQYPSLVMVAGRFLVANL it is -0.082 ± 0.5.
The figure for FYLISWKWVKHVGIFA is -0.618 ± 1.1.
Substance GGSSRQTHW registered an amyloid nucleation score of -0.375 ± 1.1.
KSCGLLAYDT: the amyloid nucleation score result was “inactive”.
The value for LSVSPGSRDLREPEDSFMWS was -0.05 ± 0.3.
The value for KPFHLIKTWKQLLLEKGGPN was -0.157 ± 0.28; that for TRWARYALNVIEHWQLSWVK was 0.145 ± 0.63.
The value for FAIMHFY was -0.711 ± 1.1; that for TLDGLDS was -0.283 ± 0.25; that for FLGDFRVCLF was “inactive”.
Substance MILHCGASKGIPFLFGKDFL came in with an amyloid nucleation score of -0.208 ± 0.16.
The value for NEMGFSHISGEMCAP was -0.882 ± 0.24.
The value for LTKGRSFCVNPFHITVDGQE was -0.761 ± 0.23.
The value for ALDWPLICA was -0.07 ± 0.39; that for DNLLSPTSRKFRVDTILL was -0.256 ± 0.4; that for SREIWRLYDI was -0.124 ± 0.8.
LGSVYRQGSEGGWATYLNTY: the amyloid nucleation score entry is “inactive”.
The figure for HVHVNLYRTSGDIEHMSVQL is 8.391 ± 0.046; for RYHVRMKISCRF it is 2.74 ± 0.11.
The value for TYSSNASGVTVFR was -0.772 ± 0.63; that for RFSLRRNCAMAQWLISATCS was 0.37 ± 0.3.
HVEWMTCWLVSNNTDPRWDR registered an amyloid nucleation score of 0.911 ± 0.27.
TFLVLLRVMVWVV: the amyloid nucleation score stood at 0.648 ± 0.6.
The figure for SSCKARMVFMLGRYGSGRNL is 0.112 ± 0.79; for PITVYWCCDNS it is 3.84 ± 0.087; for TIIRRDSLESQRRHCPMVVV it is 0.351 ± 0.64.
The value for CKMYVET was 0.23 ± 0.38; that for FSWFFSNITITMNHCLGVSR was “inactive”; that for ILDCLRVRESDHVSGRNRVC was 0.509 ± 0.37.
The value for VVIFCVVFWV was 0.129 ± 0.76.
For the substance HKCRWSGPAVGSQGKDVIIL, the amyloid nucleation score stood at 1.12 ± 0.44.
The value for LSRSRVINIYASAGWRFLGS was “inactive”; that for LVIMGVCGWSGL was 7.975 ± 0.038; that for SGNKAMWKIIPLT was -0.262 ± 0.27.
The value for TGSVREYCGEVPWRLCDDRV was 0.244 ± 0.62; that for NDVAKYACDKHSGNYGYSQG was 0.011 ± 1.1; that for EFDQWFLLFSLRSSFGLYLF was 0.078 ± 0.25.
The value for VEARVHFPFWDLIEVSMYGY was -0.665 ± 0.49; that for DGVSAFVCTFRDAVVRSAME was 4.29 ± 0.045.
Substance IHRILCHGVRASMLGGSVAL had an amyloid nucleation score of 0.067 ± 0.79.
The value for NRKRLWHYFLGTKDISIERV was “inactive”; that for GSWDFSGAIMGLSYSKTVYI was -1.18 ± 1.1.
The value for NCWISIYNMFLLRRRMMGMG was -0.611 ± 0.63; that for SDYYVFTDVFVGGYNLDE was -1.04 ± 1.
The figure for RLECRLNSEPFYKDWTSSDS is 0.674 ± 0.39; for LLALSFLTVVFEFCLNSMMG it is -1.28 ± 0.62.

Source of the values: the supplement of paper PMC12042874.
